From the DeepSol protein solubility set

Assay: soluble on expression in E. coli; label from the status in PepcDB or PDB records
With “MNSQTTKDIPCFRSYLPDALRLRFEDKLTIRAIAQRLGLSHSTIHTLFQRFLASGIAWPLPDSVSFAQLDAILYANRKKELTEPQIREGSWRKERRTSYSREFKVRLAKQALQPGAVVARIAREHDINNNLLFKWKSQYEDGLLSDDDIQECMPVPVALTDTPEPTRPVTNPFWRNKHDERPEGAPGNVPRCELHLKSGVVKLFDPLTPELLRALIREMKGGIRLEHHHHHH” the “soluble on expression in E. coli” value was “not soluble”.
In the case of “MRGSHHHHHHTDPALRAAIIPKNYARLESGYREKALKIYPWVCGRCSREFVYSNLRELTVHHIDHDHTNNPEDGSNWELLCLYCHDHEHSKYTEADQYGTTVIAGEDAQKDVGEAKYNPFADLKAMMNKKKGLCGR”, the “soluble on expression in E. coli” value is reported as “soluble”.
For “MKKAVVVFSGGQDSTTCLVQALKEFDEVHAITFDYGQRHKLEIEVAQKIAKDLGVKAHKVMDVGLLNELAISSLTRDDIPVSHELQENGLPNSFVPGRNILFLTLAGIYAYQIGADTVITGVCETDFSGYPDCRDDFVKSMNTALVKGMDRALTIKTPLMWLNKAETWALADQYNALQLVRENTLTCYNGIIGDGCGDCPSCDLRKAGLDEYLNNKDAVMKSLVQKQESEGL”, the “soluble on expression in E. coli” value was “not soluble”.
For “MTDDKKMFDINEFLKRHLFVKNWVNYRQQSYTKYELMQLIESVEAALSVDDTLAKISPPVTIVGDIHGQYPDLVRVLCNQNSKEDAKKKAAYGFCNSRFVFLGDYVDRGHHSIECISLVFALKVVYPTNYILLRGNHETKSINYTYGFREELVNRLGPIDGFEIWERFNVAFSWMPLACLVGHKILCMHGGISPKLHSLKEINEIDRPVAEILPDSLAQDLLWADPADGQGAMTVRSTPEYVPNGVRGLSFIFNEAAVRDTCKRLNINLIVRAHQMIPEGFKFFADQKLLTIFSAPRYMNETDNHGATLRVETDGKLNIGRFRHKKLLHANSADEITRGDDIPNLERKKSGSMPVKHLKTSSSSSPSHSNGKSKGGEGLSLGKI”, the “soluble on expression in E. coli” value was “not soluble”.
In the case of “MYQVVKMFGDWEPWWFIEGWEEDITEIAEYDTLSEALLYFQEEWDRGQEKWPYFQSKSSLLATFWSIKEKRWCEECDEYLQQYHSLMLLKEWQEIPKEESIERFEVFNKIAELPSACSLNLLEHHHHHH”, the “soluble on expression in E. coli” value is reported as “soluble”.
For “MAHHHHHHMSDVSIYALRGTSALYEVLGVSRNATQREIRQGYYRLAVLYHPDKNPEGSDIFKEVCFAHGILSDPEQRALYDSGTLRAELESRARACDPSMDPGVELSPEDLRVFVDRVRQTQEANRQVQSTFELRREEEMKRRAEFDAKNPSFKAEYEQARHLRQHGCRGSTSAAHARASATADLSKTVPPKVRTSAEVLAELQREEEERLYGNPGIGSVDSSSSKRAESDGLSTKHHMMSHYRATHREASGAESLSNSYSGGSTAATVRRRQLETTRLPFVRAHCETPQYSETISATVQAYANYDYLTFVEGGSMDHGELEGAIMADALGNYDRHH”, the “soluble on expression in E. coli” value was “not soluble”.
In the case of “MSLRAPRRSNADGLSENVLKAILEPAAAYMAETQKMKEEGNENGGSENTNIDQRNQLLQQASQRGSIGSFLDTTSLSTCSKRSLHSSRLTLSDSKEFYKTVGCRWIRSVRHGDVSTVKKMLEENSELVNYAPTYGPLALHLAAARSDRSIILLLLAKGAEVDSRDAAGYTCLQLAIRRGNQSLAHFLILQGANIELIDPDGRGIIDYDGWSGEDQRSAEKHFYGKIILRPKAHSFVGSPSSISMKSSKSTRTMRPSSTPNDSMISEYESSNLKRNEKQRSSWMSFFKSHTIFGSNSKS”, the “soluble on expression in E. coli” value is reported as “not soluble”.
In the case of “KETCSTGLYTHSGECCKACNLGEGVAQPCGANQTVCEPCLDSVTFSDVVSATEPCKPCTECLGLQSMSAPCVEADDAVCRCAYGYYQDEETGHCEACSVCEVGSGLVFSCQDKQNTVCEECPEGTYSDEANHVDPCLPCTVCEDTERQLRECTPWADAECEHHHHHH”, the “soluble on expression in E. coli” value is reported as “soluble”.
For “ANMPPGSVEQVAAKVVPSVVMLETDLGRQSEEGSGIILSAEGLILTNNHVIAAAAKPPLGSPPPKTTVTFSDGRTAPFTVVGADPTSDIAVVRVQGVSGLTPISLGSSSDLRVGQPVLAIGSPLGLEGTVTTGIVSALNRPVSTTGEAGNQNTVLDAIQTDAAINPGNSGGALVNMNAQLVGVNSAIATLGADSADAQSGSIGLGFAIPVDQAKRIADELISTGKASHASLGVQVTNDKDTLGAKIVEVVAGGAAANAGVPKGVVVTKVDDRPINSADALVAAVRSKAPGATVALTFQDPSGGSRTVQVTLGKAEQLEHHHHHH”, the “soluble on expression in E. coli” value was “soluble”.
For “MPTPPGQSSSQPLPAKELGYFKKIVKSYEQKQYKAGLKFAQKILTSPGFAEHGETLAMKGLILNCMGKLQEAQDCVRRGLVSDLRSYVCWHVFGLIQKTEKKYDEAIKAYKRALMLEKDNLQILRDLSLLQIHIRDYDGYLSSKYELLQLRQTQRVSWLGYIVAHHLLKEHNLALGIMAEYIKNNTPSGYDFEFSELILYQNLIMREAGLPDVALQKLEENSTHIVDKVAYMETRANLLMDLEQPKQAENVWRALIERNPDSLEYYDMLEKCMGIKDSPKAQLAMLDGLAEKFKRAAAPRRLALYLVEGEELRRRLHEWMIPMLRKGAPSLFASLVPLYKYPQKQAVIESLITEYVKKMDDEGYGNVSLDGKDQECEPPTTALWLYVLASHHFDRCGMTQLALNYIERAIQHTPTVVENYMLKARIYKHAGDYDEAARWMEEAQSLDTADRYINGKCGKYLLRAKRSDEANKMLAKFTREGENAASHLTDMQCMWYELESGRAFRSVNKYGEALRKAHHIDFHFNTWIEDQYDFHTYCLRKMTLCSYIRLLRMCDKLRDADYYYQGAKLAIKIYLRMIDRPDDMNEHSALIKEGMTDQEIKKMKKKLKKQKELQEEEEKKKKDKEQKEEGLQRGPQIDAEALLKTEDPLGEAAKFCHNIHTFGTQKVTGYALCAEVYRRKGKVLLALKCLNEGEDREPTHPLLHVQKVKFLAYWPKCELSGLVKETADELMKCVYGAERDAAELNEKFKIEHQHDFAHRLAYAEAQYSIDSSTNLISWILKSIEDSKVNGRSLKMMIKLKDGIEYGKYGKWSKDDMEKLRKQVHSLFPLSLDFGGGVQHKSASAAPTSAETN”, the “soluble on expression in E. coli” value was “not soluble”.
With “MSIEQTLSQYLPSHPKPQGVTFTYGTAGFRMKADKLDYVTFTVGIIASLRSKYLQGKTVGVMITASHNPPEDNGVKVVDPLGSMLESSWEKYATDLANASPSPSNDSEGEKNSLVEVIKNLVSDLKIDLSIPANVVIARDSRESSPALSMATIDGFQSVPNTKYQDFGLFTTPELHYVTRTLNDPDFGKPTEDGYYSKLAKSFQEIYTICESNNEKIDITIDAANGVGAPKIQELLEKYLHKEISFTVVNGDYKQPNLLNFDCGADYVKTNQKLPKNVKPVNNKLYASFDGDADRLICYYQNNDNKFKLLDGDKLSTLFALFLQQLFKQIDPTKISLNIGVVQTAYANGSSTKYVEDVLKIPVRCTPTGVKHLHHEAENFDIGVYFEANGHGTVIFNPEAEKKIFDYKPNNDNEAKAIKVLQNFSQLINQTVGDAISDLLAVLIVVHYLKLSPSDWDNEYTDLPNKLVKVIVPDRSIFKTTNAERTLVEPKGMQDEIDKLVAQYPNGRSFVRASGTEDAVRVYAEADTQNNVEELSKAVSELVK” the “soluble on expression in E. coli” value was “soluble”.
For “MSRLQLAIEERDEAIARAKHMEMSLKVLENINPEENDMTLQELLNRINNADTGIAIQKNGAIIVDRIYKTKECKMRITAEEMSALIEERDAALSKCKRLEQELHHVKEQNQTSANNMRHLTAENNQERALKAKLLSMQQARETAVQQYKKLEEEIQTLRVYYSLHKSLSQEENLKDQFNYTLSTYEEALKNRENIVSITQQQNEELATQLQQALTERANMELQLQHAREASQVANEKVQKLERLVDVLRKKVGTGTMRTVI”, the “soluble on expression in E. coli” value was “soluble”.
With “MSLEHLHELVGSVDVVLSDIWGVVHNGLESFPDACAALKTARDQGRTVVLITNAPRPADSVQRQLRKLDVPDDCYDAIVSSGDLTRIYVAEHPGQSIYWLGPDRDNSIYRGLDAVLTPLEKADYIICTGPFDDETESAEDYREMMGQALERKLTLVCANPDIVVERGDRLIYCAGAIAELYRELGGDVIFYGKPHRPIYDRAMALAREIRGVDTPVQRVLAIGDSVRTDLAGAQGYGIDLLFVTRGIHADAFEGIDRLDTAAVNELFGHPPLALTRELREGHHHHHH” the “soluble on expression in E. coli” value was “soluble”.
With “MKRGKQTCKILKDIRRQIAEANDIEFITSECQYQGDCLGTCPKCEAEVRYLEQQLERKRMAGKAITILGISAGLVAMAPMTSCSSSPNKGTNQETISDSTNASVMFGEICPTPVEDTIPMVEKDTVNKQELPELPQEMGLIEITPISGDIITVKDSLSEKDSLTDVLEVAAVMPEFPGGARELMKFISANIRYPSMSQGGVCQGRAIVQFIVDKEGNIVQPKVVRGVDPYLDKEALRVVGLMPKWKPGELDDGTKVAVRFTIPVMFRLQ” the “soluble on expression in E. coli” value was “not soluble”.
